Here are results for 1 molecule from article PMC8303780, “Mutational Analysis of Redβ Single Strand Annealing Protein: Roles of the 14 Lysine Residues in DNA Binding and Recombination In Vivo”.

Common to all, as to test: EMSA; strands added sequentially; Anisotropy: 50 mM Tris-HCl pH 7.5, 1 mM DTT, 0.1 mg/mL BSA, 10 nM FAM48, 23 °C (Kd per monomer); gel assay: 10 µM Redβ, 50 µM nt of each oligo, PBS, 37 °C, 1% agarose at 22 °C
Holding throughout (conditions): protein: recombinant; tags: 6xHis removed by thrombin; residual N-terminal GSH; label: 5'-Cy3 and 5'-Cy5; complementary 50-mers; annealed by protein

In one data set the target is T1, Redβ WT (bacteriophage λ, UniProt P03698 1-261).
T1 sequence: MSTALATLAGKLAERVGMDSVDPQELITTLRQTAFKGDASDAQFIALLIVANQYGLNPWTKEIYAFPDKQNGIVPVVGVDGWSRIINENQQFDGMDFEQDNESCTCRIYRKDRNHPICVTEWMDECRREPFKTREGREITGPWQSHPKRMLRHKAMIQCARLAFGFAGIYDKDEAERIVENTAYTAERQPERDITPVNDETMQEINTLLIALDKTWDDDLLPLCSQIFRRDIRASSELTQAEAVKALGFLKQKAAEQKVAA

The target in the next data set is T2, Redβ K111A (bacteriophage λ, UniProt P03698 1-261, K111A).
T2 sequence: T1 sequence with K111A

The next data set has as its target T3, Redβ K214A (bacteriophage λ, UniProt P03698 1-261, K214A).
T3 sequence: T1 sequence with K214A

A further data set addresses T4, Redβ K258A (bacteriophage λ, UniProt P03698 1-261, K258A).
T4 sequence: T1 sequence with K258A

The target of a further data set is T5, Redβ K11A (bacteriophage λ, UniProt P03698 1-261, K11A).
T5 sequence: T1 sequence with K11A

In a further data set the target is T6, Redβ K154A (bacteriophage λ, UniProt P03698 1-261, K154A).
T6 sequence: T1 sequence with K154A

Numbering of substitutions follows the chain as printed.

B1: annealed duplex of Cy3 and Cy5 50-mers, strands added sequentially (dsDNA)
DNA 1: GCGGATGGCTTAGAGCAGAATCGCCCTGCATAGCTCGATTTTTGCGGATG
DNA 2: CCATCCGCAAAAATCGAGCTATGCAGGGCGATTCTGCTCTAAGCCATCCG
Turning to B1, the binding result is listed as “binds” in the data set with Redβ WT; “no binding” with Redβ K111A; “binds” in the data set with Redβ K214A; “binds” in the data set with Redβ K258A; “binds” in the data set with Redβ K11A; “no binding” with Redβ K154A.
